In publication PMC2916881:

Key:
[1] = biological target: human fibrinogen (human) (UniProt P02671); assay: SPR; BIAcore 3000, CM5 chip; human prothrombin and human fibrinogen amine-linked, Coa or vWbp injected in HBS-P (20 mM HEPES pH 7.4, 150 mM NaCl, 0.005% P20), flow 2 uL/min; 1:1 binding model with drifting baseline and local Rmax (the legend of Figure S5 tells the opposite orientation)
[2] = biological target: human prothrombin (human); assay: as above

UniProt P02671, sequence (P02671 36-866, chain 1 of 3): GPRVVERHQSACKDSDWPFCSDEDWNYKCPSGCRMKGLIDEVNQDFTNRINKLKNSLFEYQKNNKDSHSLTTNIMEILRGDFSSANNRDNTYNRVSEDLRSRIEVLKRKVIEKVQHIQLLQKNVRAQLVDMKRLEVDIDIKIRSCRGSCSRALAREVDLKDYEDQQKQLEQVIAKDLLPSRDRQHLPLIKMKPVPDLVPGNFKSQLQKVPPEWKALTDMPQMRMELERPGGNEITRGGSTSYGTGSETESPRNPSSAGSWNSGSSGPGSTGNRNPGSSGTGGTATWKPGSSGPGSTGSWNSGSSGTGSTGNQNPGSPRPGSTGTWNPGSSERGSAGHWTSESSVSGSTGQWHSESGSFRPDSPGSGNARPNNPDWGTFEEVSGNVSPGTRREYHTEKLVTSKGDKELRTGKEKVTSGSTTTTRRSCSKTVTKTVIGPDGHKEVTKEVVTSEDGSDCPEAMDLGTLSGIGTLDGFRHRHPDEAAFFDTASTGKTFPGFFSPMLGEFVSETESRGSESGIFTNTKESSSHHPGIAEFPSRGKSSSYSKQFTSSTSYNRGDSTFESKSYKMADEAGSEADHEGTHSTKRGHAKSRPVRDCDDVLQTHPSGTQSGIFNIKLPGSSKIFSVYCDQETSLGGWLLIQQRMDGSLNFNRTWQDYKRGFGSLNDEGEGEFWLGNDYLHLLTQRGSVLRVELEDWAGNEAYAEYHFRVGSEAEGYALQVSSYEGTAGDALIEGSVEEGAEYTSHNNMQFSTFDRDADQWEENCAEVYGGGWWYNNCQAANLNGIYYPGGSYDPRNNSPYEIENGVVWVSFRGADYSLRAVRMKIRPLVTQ
UniProt P02671, sequence (P02675 45-491, chain 2 of 3, further chain): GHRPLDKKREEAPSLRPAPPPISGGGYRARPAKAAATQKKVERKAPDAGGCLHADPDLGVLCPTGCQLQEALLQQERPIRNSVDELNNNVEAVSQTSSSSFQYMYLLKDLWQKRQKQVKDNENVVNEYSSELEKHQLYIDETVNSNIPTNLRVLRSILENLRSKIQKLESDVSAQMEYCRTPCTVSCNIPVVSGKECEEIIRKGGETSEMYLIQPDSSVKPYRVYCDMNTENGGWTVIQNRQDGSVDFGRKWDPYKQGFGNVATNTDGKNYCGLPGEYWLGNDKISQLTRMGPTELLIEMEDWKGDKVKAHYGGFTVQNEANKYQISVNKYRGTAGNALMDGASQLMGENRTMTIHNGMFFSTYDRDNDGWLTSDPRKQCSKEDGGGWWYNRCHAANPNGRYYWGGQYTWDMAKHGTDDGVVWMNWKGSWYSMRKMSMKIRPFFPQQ
UniProt P02671, sequence (P02679 27-453, chain 3 of 3, further chain): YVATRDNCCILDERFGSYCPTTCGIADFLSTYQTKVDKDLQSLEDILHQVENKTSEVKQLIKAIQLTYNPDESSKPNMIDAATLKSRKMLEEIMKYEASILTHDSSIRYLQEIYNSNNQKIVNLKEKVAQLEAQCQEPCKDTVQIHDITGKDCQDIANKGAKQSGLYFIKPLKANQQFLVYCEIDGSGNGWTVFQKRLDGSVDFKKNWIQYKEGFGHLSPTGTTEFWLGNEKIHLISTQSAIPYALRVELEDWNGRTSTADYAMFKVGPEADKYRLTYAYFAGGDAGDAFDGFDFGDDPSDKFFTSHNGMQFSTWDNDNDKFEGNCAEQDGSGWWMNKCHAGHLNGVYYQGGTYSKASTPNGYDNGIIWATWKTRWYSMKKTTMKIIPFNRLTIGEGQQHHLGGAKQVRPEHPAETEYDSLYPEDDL

Substance	Kd [1] [nM]	Kd [2] [nM]
S. aureus Newman von Willebrand factor binding protein (natural protein)	271	98
S. aureus Newman Coagulase (natural protein)	33	5
